Laboratory results taken from paper PMC2139828.
Blank lines part the entries; values can stand above or below the substance they belong to.

What was measured:
Assay in all cases: SDS-PAGE under nonreducing conditions
[1] = target: rFN(C), recombinant human fibronectin isoform lacking both EDA and EDB segments (human)
[2] = target: rFN(BAC), recombinant human fibronectin isoform containing both EDA and EDB segments (human)
[3] = target: rFN(AC), recombinant human fibronectin isoform containing EDA but lacking EDB (human)

stoichiometry N [1]: 2
Substance: rFN(C), recombinant human fibronectin isoform lacking both EDA and EDB segments (natural protein)

stoichiometry N [2]: 2
Substance: rFN(BAC), recombinant human fibronectin isoform containing both EDA and EDB segments (natural protein)

stoichiometry N [3]: 2
Substance: rFN(AC), recombinant human fibronectin isoform containing EDA but lacking EDB (natural protein)
